From US20050208120A1 come the findings set out here.

Assay [1] has as its target T cell receptor of the I-A^d restricted OVA specific T cell hybridoma 8DO51.15. In words: flow cytometry; biotinylated MHC in liposomes, no peptide.
Assay [2] deals with T cell receptors of CD4+ cells from BALB/c fetal thymic organ culture (FTOC). Kind of assay: flow cytometry T cell capture; FTOC in the presence of 10^-2 mM Iα52; polyclonal thymocytes.
Assay [3] addresses T cell receptors of T cell populations derived from Iα52-supplemented FTOC and expanded with Hi15. In words: flow cytometry; cells from Iα52-supplemented FTOC after two weeks with 10 ug/ml Hi15; polyclonal. Background: Flow cytometry measures light scatter and fluorescence of single cells or particles in a stream.
Assay [4] addresses T cell receptors of CD4+ T cells from regional draining lymph nodes of BALB/c mice. In words: flow cytometry T cell capture; lymph node cells of Iα52-immunized BALB/c mice; polyclonal.
Assay [5] has as its target T cell receptors of T cell populations derived from Iα52-supplemented FTOC and expanded with Hi15.
For assay [6], the target named is T cell receptors of CD4+ cells from BALB/c fetal thymic organ culture (FTOC). Kind of assay: flow cytometry T cell capture; FTOC alone without added peptide; polyclonal thymocytes.
Assay [7] has as its target T cell receptors of CD4+ T cells from regional draining lymph nodes of BALB/c mice. In words: flow cytometry T cell capture; lymph node cells of IFA-only immunized BALB/c mice; polyclonal.
Assay [8] has as its target T cell receptor of the I-A^d restricted OVA specific T cell hybridoma 8DO51.15. Kind of assay: flow cytometry; liposome:MHC:b-peptide with streptavidin-FITC on hybridoma cells, final MHC concentration 66 ug/ml.
Assay [9] has the same target. Kind of assay: flow cytometry; correct restriction element, irrelevant peptide, on 8D051.15 cells.

B1: biotinylated I-A^d in liposomes without peptide (protein, mouse)
MHC II alpha: EDDIEADHVGFYGTTVYQSPGDIGQYTHEFDGDELFYVDLDKKKTVWRLPEFGQLILFEPQGGLQNIAAEKHNLGILTKRSNFTPATNEAPQATVFPKSPVLLGQPNTLICFVDNIFPPVINITWLRNSKSVTDGVYETSFLVNRDHSFHKLSYLTFIPSDDDIYDCKVEHWGLEEPVLKHWEPEIPAPMSELTE
MHC II beta: GNSERHFVVQFKGECYYTNGTQRIRLVTRYIYNREEYVRYDSDVGEYRAVTELGRPDAEYWNSQPEILERTRAEVDTACRHNYEGPETSTSLRRLEQPNVAISLSRTEALNHHNTLVCSVTDFYPAKIKVRWFRNGQEETVGVSSTQLIRNGDWTFQVLVMLEMTPHQGEVYTCHVEHPSLKSPITVEWRAQSESARSK
Turning to B1, the % of cells bound in assay [1] came to 6.9%.

B2: liposome:I-A^d:biotinylated Iα52 peptide complex (peptide-MHC, mouse)
MHC II alpha: B1 MHC II alpha
MHC II beta: B1 MHC II beta
peptide: ASFEAQGALANIAVDKA
Turning to B2, the % of CD4+ cells bound in assay [2] amounted to 50.9%; in assay [6] it was 20.7%. The molecule also yielded a % of cells bound in assay [3] of 52.8%. In addition, the % of CD4+ T cells specific in [4] worked out at 5.4%; in assay [7], 0.7%. Also, in assay [5], the % of CD4+ cells positive for both peptides was found to be 31.1%.

B3: liposome:I-A^d:biotinylated OVA^323-336 peptide complex (peptide-MHC, mouse)
MHC II alpha: B1 MHC II alpha
MHC II beta: B1 MHC II beta
peptide: ISQAVHAAHAEINE
As for B3, the % of cells stained positive in assay [8] was 87.2%.

B4: liposome:I-A^d:biotinylated Hi15 peptide complex (peptide-MHC)
MHC II alpha: B1 MHC II alpha
MHC II beta: B1 MHC II beta
peptide: TSFPMRGDLAKREPDK
In assay [5], B4 showed a % of CD4+ cells positive for both peptides of 31.1% and a % of cells positive of 52%. The % positive cells in [9] was 8.7%.
